Laboratory results reported in PMC6379670, “An ultra-high affinity ligand of HIV-1 TAR reveals the RNA structure recognized by P-TEFb” (Nucleic Acids Research, 2018).
Non-standard residues stand in square brackets, D forms with d. Residues, ends and D or L forms follow the SMILES beside them. *: point of attachment. 5FAM = O=C1OC2(c3ccc(O)cc3Oc3cc(O)ccc32)c2ccc(C(=O)*)cc21

Key:
[1] = tested on: HIV-1 clone NLgNef in M7-luc cells; experiment: Spreading infection (inhibition of viral spread); type: cell-based; conditions: M7-luc cells infected with NLgNef
Protocol: A 5 × 10^6 5.25.EGFP.Luc.M7 cells (M7-luc, gift of N. Landau(36)) grown in Roswell Park Memorial Institute medium (RPMI) containing 25 mM 4-(2-hydroxyethyl)-1-piperazineethanesulfonic acid (HEPES) (GE Life Sciences, Pittsburgh, PA), 10% Fetal Bovine Serum (FBS) (Sigma, St. Louis, MO) and 100 μg/ml normocin (Invivogen, San Diego, CA) were infected with the HIV-1 strain NL43-GFP-IRES-Nef (NLgNef) that expresses Green Fluorescent Protein (GFP) and Nef on a bicistronic Nef messenger RNA (a gift of David Levy ([37])) at a low multiplicity of infection (<0.01 infectious units/cell). […] Forty-eight hours post peptide addition, the percentage of cells expressing GFP was determined by flow cytometry via BD Fortessa SORP (BD, Franklin Lakes, NJ). Flow cytometry data were analyzed using WinList 3D (Verity Software House, Topsham, ME). […]
To evaluate anti-viral potency, we tested compound JB181 for inhibition of viral spread (Figure 3A) by comparison with L22 and a linear peptide control (same sequence as L22 but not cyclized). […] Peptides were added 24 h post-infection and spread of infection determined after 72 h. […]
Figure 3. […] Three days post-infection, GFP expression was measured by flow cytometry. […] Twenty-four hours later, reactivation as monitored by GFP expression was measured by flow cytometry. […]

[2] = tested on: Jurkat clone E4 (latent HIV provirus with LTR-driven GFP); experiment: Reactivation from latency; type: cell-based, HIV-1; conditions: E4 Jurkat cells, peptides 0.39-100 μM, TNFα 1 ng/ml, GFP by flow cytometry 24 h later, triplicate
Protocol: A 5 × 10^4 cells/well of Jurkat clone E4 (in RPMI ([38])) were added to a 96-well plate at the same time as a dilution series of JB181, cyclic L22 and linear L22 (0.39, 1.56, 6.25, 25, 50 and 100 μM) in triplicate. Four hours following peptide addition, tumor necrosis factor α (TNFα) (1 ng/ml, Peprotech, Rocky Hill, NJ) was added to stimulate HIV-1 transcription. Twenty-four hours later, the percentage of cells expressing GFP was determined by flow cytometry as described above.
Figure 3. (A) M7-luc cells were infected with the replication competent HIV-1 clone NLgNef at very low titer. Three days post-infection, GFP expression was measured by flow cytometry. […] (B) JB181 inhibits HIV-1 reactivation from latency. Tat-dependent expression of GFP is repressed in E4 Jurkat cells, which serve as a model of HIV latency. These cells were pre-incubated for 2 h with L22 (cyclic, green), L22 (linear, blue) or JB181 (cyclic, red) at concentrations 0.5–100 μM, then stimulated for reactivation by TNFα at 1ng/ml. Twenty-four hours later, reactivation as monitored by GFP expression was measured by flow cytometry. […] (C) Biochemical RT inhibition assays were conducted as described previously ([31]) for peptides JB59, JB60, JB181 and L50 along with AZT. (D) Competition EMSA comparing affinity of the P-TEFb/Tat1:57/AFF4 complex for wild-type HIV-TAR with or without JB181 pre-bound to TAR. […]

2D10 Jurkat cells = type: cell-based; conditions: 1 mg/ml peptide in the extracellular medium, percent of cells containing peptide by flow cytometry
Protocol: (§1) Frozen, de-identified human PBMCs (Allcells, Alameda, CA) were thawed and stimulated with 6 IU IL-2 (R&D Systems, Minneapolis, MN) and 10 μg/ml concanavalin A (ConA, MilliporeSigma, Billerica, MA) in RPMI. Six days post-thaw, CD4+ T cells were positively isolated using an EasySep Human CD4 positive selection kit in a RoboSep robot (#18052RF, Stemcell Technologies, Cambridge, MA). 2D10 Jurkat cells ([38]) were also grown in RPMI. L22 selectively labeled with 5/6-carboxyfluorescein was added at indicated concentrations at indicated time points prior to flow cytometry analysis as described above.
(§2) Fig. S4. Uptake of fluorescein-labeled L22. a). The turn residue, Lys6, of L22 was first selectively labeled with 5/6-carboxyfluorescein using NHS coupling chemistry and incubated with either CD4+ T cells (top) […]
(§3) containing peptide was analyzed by flow cytometry. b). 2D10 Jurkat cells were first stimulated with TNFα for 4hrs then incubated with L22-AF647 (red) for 30min prior to FISH staining for HIV TAR RNA (yellow), nuclear staining with DAPI (blue) and GFP expression dependent on transcription of HIV (green).
(§4) Panel I overlay all four stains, Panel II is L22-AF647 only; Panel III is L22-AF647 and TAR FISH, Panel IV L22-AF647 and GFP expression.
(§5) (1 picture or pasted object on this page, not shown here)

CD4+ T cells = type: cell-based; conditions: human CD4+ T-cells; 1 mg/ml peptide in the extracellular medium; percent of cells containing peptide by flow cytometry
Protocol: as §1, §2, §3, §4, §5

JB190 (synthetic) = experiment: EMSA
JB184 (synthetic) = experiment: EMSA
JB181 (synthetic) [3] = experiment: EMSA
JB186 (synthetic) = experiment: EMSA
[4] = target: P-TEFb/Tat1:57/AFF4;JB181 (HIV-1 (Tat); human? (P-TEFb, AFF4);synthetic) (UniProt O60563+P50750+P04608+Q9UHB7); experiment: EMSA
JB59 (synthetic) = experiment: EMSA
JB185 (synthetic) = experiment: EMSA
JB58 (synthetic) = experiment: EMSA
L22 (synthetic) = experiment: EMSA
JB181 (synthetic) [5] = experiment: 2-aminopurine fluorescence; conditions: C24 replaced by 2-aminopurine
P-TEFb/Tat1:57/AFF4 = P-TEFb/Tat1:57/AFF4 (HIV-1 (Tat); (P-TEFb, AFF4), UniProt O60563;P50750;P04608;Q9UHB7 1-264;1-330;1-57;2-73); experiment: EMSA; 250-fold excess yeast tRNA; RNA 100 pM; conditions: protein: recombinant; copies: 1;1;1;1; label: 5'-32P; hairpin with UCU bulge

CC[C@H](C)[C@@H]1NC(=O)[C@H](CCCNC(=N)N)NC(=O)[C@H](CCCNC(=N)N)NC(=O)CNC(=O)[C@H](CCCCN)NC(=O)[C@H](CCCNC(=N)N)NC(=O)[C@H]([C@@H](C)O)NC(=O)[C@H](CCCNC(=N)N)NC(=O)[C@H](C(C)C)NC(=O)[C@H](CCCNC(=N)N)NC(=O)[C@@H]2CCCN2C(=O)[C@H]2CCCN2C(=O)[C@H]([C@@H](C)CC)NC(=O)[C@H](CCCNC(=N)N)NC1=O [Peptide L22] (cyclo(RVRTRKGRRIRI[dP]P))
reduction of infection compared to no peptide controls ([1]; peptides 12.5 to 100 μM added 24 h post-infection, % GFP-expressing cells by flow cytometry, triplicate): > 50%
inhibition of viral replication and spread (in words) ([1]; peptides 12.5 to 100 μM, GFP by flow cytometry): blocked replication and spread
inhibition of HIV-1 reactivation from latency (in words) [2]: inhibit at similar levels
inhibition of HIV-1 reactivation from latency (in words) ([2]; listed as cyclic L22): blocked reactivation

CC[C@H](C)[C@@H]1NC(=O)[C@H](CCCNC(=N)N)NC(=O)[C@H](CCCNC(=N)N)NC(=O)CNC(=O)[C@H](CCCCNC(=O)c2ccc3c(c2)C(=O)OC32c3ccc(O)cc3Oc3cc(O)ccc32)NC(=O)[C@H](CCCNC(=N)N)NC(=O)[C@H]([C@@H](C)O)NC(=O)[C@H](CCCNC(=N)N)NC(=O)[C@H](C(C)C)NC(=O)[C@H](CCCNC(=N)N)NC(=O)[C@@H]2CCCN2C(=O)[C@H]2CCCN2C(=O)[C@H]([C@@H](C)CC)NC(=O)[C@H](CCCNC(=N)N)NC1=O [fluorescein-labeled L22] (cyclo(RVRTRK(5FAM)GRRIRI[dP]P))
uptake (in words) (2D10 Jurkat cells): good uptake
uptake (in words) (CD4+ T cells): good uptake

GGCAGAUCUGAGCCUGGGAGCUCUCUGCC [HIV-1 TAR]
Kd (JB190 (synthetic)): 1.6 nM
Kd (JB184 (synthetic)): > 250 nM
Kd (JB181 (synthetic) [3]): < 0.18 nM
Kd (JB186 (synthetic)): 1.2 nM
Kd [4]: 17 nM
Kd (JB59 (synthetic)): 1 nM
Kd (JB185 (synthetic)): 0.5 nM
Kd (JB58 (synthetic)): 3 nM
Kd (L22 (synthetic)): 30 nM

HIV-1 TAR C24 2-aminopurine
Kd (JB181 (synthetic) [5]): 0.028 nM

GGCAGAUCUGAGCCUGGGAGCUCUCUGCC (structured_RNA) [HIV-1 TAR]
Kd (P-TEFb/Tat1:57/AFF4): 9 ± 4 nM
